Data reported in paper PMC5735978, “PAK6 Phosphorylates 14-3-3γ to Regulate Steady State Phosphorylation of LRRK2” (Frontiers in Molecular Neuroscience, 2017).
Positions count from the first letter of the chain named. Names may count otherwise. Each block holds one binder with its values, some of them ahead of it.

Key:
3xFlag-PAK6 wild-type [1] = biological target: T1, 3xFlag-PAK6 wild-type (UniProt Q9NQU5 1-681, autophosphorylated; phospho-Ser560 monitored by western blot); experiment: far-Western, overlay or dot blot; immunopurified Flag-tagged PAK6 or LRRK2 separated by SDS-PAGE and blotted onto nitrocellulose; incubated with purified His-14-3-3s at 1 μg/ml in 5% BSA in TBS-T overnight at 4°C; anti-His detection; conditions: both partners purified
T1 construct: construct as described in Civiero et al., 2015; source: HEK293T, transfected; in lysate (immunoprecipitation) and immunopurified on anti-Flag resin (pull-down, overlay)

3xFlag-PAK6 S531N = biological target: T2, 3xFlag-PAK6 S531N (UniProt Q9NQU5 1-681, S531N, autophosphorylated; phospho-Ser560 monitored by western blot); experiment: as above; conditions: both partners purified
T2 construct: PAK6, constitutively active variant; construct as described in Civiero et al., 2015; also called active variant S531N; source: HEK293T, transfected; in lysate (immunoprecipitation) and immunopurified (overlay)

3xFlag-PAK6 wild-type [2] = biological target: T1, 3xFlag-PAK6 wild-type; experiment: pull-down; Flag-purified PAK6 bound to anti-Flag resin incubated for 2 h with purified His-14-3-3 isoforms (1 μM); bound 14-3-3s revealed with anti-His antibody; conditions: both partners purified
[3] = biological target: the molecule itself; experiment: native gel or EMSA; blue native gel (4-16%) of purified His-14-3-3γ wild-type, S59D and T145D; 5 μg of protein loaded; Coomassie staining

T1 sequence (Q9NQU5 whole entry): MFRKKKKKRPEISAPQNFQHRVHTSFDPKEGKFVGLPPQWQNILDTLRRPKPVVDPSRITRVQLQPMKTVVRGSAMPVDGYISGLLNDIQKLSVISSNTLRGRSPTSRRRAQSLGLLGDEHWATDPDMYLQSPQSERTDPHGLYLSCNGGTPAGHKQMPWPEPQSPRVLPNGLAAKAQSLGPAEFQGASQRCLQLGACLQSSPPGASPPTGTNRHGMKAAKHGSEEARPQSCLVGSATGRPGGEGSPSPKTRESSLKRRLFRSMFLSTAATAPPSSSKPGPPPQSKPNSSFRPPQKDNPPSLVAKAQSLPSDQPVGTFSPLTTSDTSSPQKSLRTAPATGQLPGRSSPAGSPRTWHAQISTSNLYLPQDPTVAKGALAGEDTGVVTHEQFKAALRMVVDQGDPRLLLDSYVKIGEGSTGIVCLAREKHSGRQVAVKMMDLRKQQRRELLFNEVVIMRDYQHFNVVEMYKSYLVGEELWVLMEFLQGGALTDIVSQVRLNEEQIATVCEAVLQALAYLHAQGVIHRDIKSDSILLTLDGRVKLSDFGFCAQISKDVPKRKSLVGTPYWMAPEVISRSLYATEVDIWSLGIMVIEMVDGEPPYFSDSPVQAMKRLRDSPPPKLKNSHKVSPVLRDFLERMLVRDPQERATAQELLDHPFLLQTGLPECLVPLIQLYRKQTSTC
T2 sequence (Q9NQU5 whole entry S531N): as the sequence (Q9NQU5 whole entry) above, with S531N counted along it

binding result (3xFlag-PAK6 wild-type [1]): binds
B1: 6xHis-14-3-3 zeta (natural protein, human, UniProt P63104 1-245, looked up)
chain: MDKNELVQKAKLAEQAERYDDMAACMKSVTEQGAELSNEERNLLSVAYKNVVGARRSSWRVVSSIEQKTEGAEKKQQMAREYREKIETELRDICNDVLSLLEKFLIPNASQAESKVFYLKMKGDYYRYLAEVAAGDDKKGIVDQSQQAYQEAFEISKKEMQPTHPIRLGLALNFSVFYYEILNSPEKACSLAKTAFDEAIAELDTLSEESYKDSTLIMQLLRDNLTLWTSDTQGDEAEAGEGGEN
notes: 14-3-3 protein zeta, cloned in pET28a(+) by PCR from a mammalian expression plasmid (Prof. Dario Alessi); also called His-14-3-3ζ; source: E. coli BL21(DE3), purified (IMAC, ProBond resin; PD10 desalting); not shown: 6xHis, N-terminal, kept

fold affinity against PAK6 wild-type (3xFlag-PAK6 S531N): 2 fold
binding result (3xFlag-PAK6 wild-type [2]): binds
B2: 6xHis-14-3-3γ wild-type (natural protein, human, UniProt P61981 1-247, looked up)
chain: MVDREQLVQKARLAEQAERYDDMAAAMKNVTELNEPLSNEERNLLSVAYKNVVGARRSSWRVISSIEQKTSADGNEKKIEMVRAYREKIEKELEAVCQDVLSLLDNYLIKNCSETQYESKVFYLKMKGDYYRYLAEVATGEKRATVVESSEKAYSEAHEISKEHMQPTHPIRLGLALNYSVFYYEIQNAPEQACHLAKTAFDDAIAELDTLNEDSYKDSTLIMQLLRDNLTLWTSDQQDDDGGEGNN
notes: 14-3-3 protein gamma, cloned in pET28a(+) by PCR from a mammalian expression plasmid (Prof. Dario Alessi); runs around the size of the dimer on blue native gels; also called recombinant 14-3-3γ; 14-3-3 gamma; source: E. coli BL21(DE3), purified (IMAC, ProBond resin; PD10 desalting); not shown: 6xHis, N-terminal, kept

B3: His-14-3-3γ T145D (natural protein, human, UniProt P61981 1-247, looked up)
chain: B2 chain with T145D
notes: 14-3-3 protein gamma, phosphomimetic mutant; also called S145D (as once printed); source: E. coli BL21(DE3), purified (IMAC); not shown: 6xHis, N-terminal, kept
binding result [3]: binds

binding result (3xFlag-PAK6 wild-type [1]): binds
B4: 6xHis-14-3-3 theta (natural protein, human, UniProt P27348 1-245, looked up)
chain: MEKTELIQKAKLAEQAERYDDMATCMKAVTEQGAELSNEERNLLSVAYKNVVGGRRSAWRVISSIEQKTDTSDKKLQLIKDYREKVESELRSICTTVLELLDKYLIANATNPESKVFYLKMKGDYFRYLAEVACGDDRKQTIDNSQGAYQEAFDISKKEMQPTHPIRLGLALNFSVFYYEILNNPELACTLAKTAFDEAIAELDTLNEDSYKDSTLIMQLLRDNLTLWTSDSAGEECDAAEGAEN
notes: 14-3-3 protein theta, cloned in pET28a(+) by PCR from a mammalian expression plasmid (Prof. Dario Alessi); also called His-14-3-3θ; source: E. coli BL21(DE3), purified (IMAC, ProBond resin; PD10 desalting); not shown: 6xHis, N-terminal, kept
